# Reference: patent US20260232769A1 (WUXI BIOLOGICS IRELAND, published 2026)
# Where two headings read alike, the source gives them in different places.
# T1: IL-2Rα/β/γc complex (high affinity receptor) on human activated CD8+ T cells (human, UniProt P01589 22-272; P14784 27-551; P31785 23-369)
# T1 sequence (looked up) 1: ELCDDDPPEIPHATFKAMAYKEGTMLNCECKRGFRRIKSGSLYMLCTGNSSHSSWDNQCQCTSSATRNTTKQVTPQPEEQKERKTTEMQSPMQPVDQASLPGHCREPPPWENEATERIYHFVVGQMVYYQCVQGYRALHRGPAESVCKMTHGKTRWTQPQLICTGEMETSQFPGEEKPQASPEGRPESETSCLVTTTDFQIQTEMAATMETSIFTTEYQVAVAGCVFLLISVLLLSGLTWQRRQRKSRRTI
# T1 sequence (looked up) 2: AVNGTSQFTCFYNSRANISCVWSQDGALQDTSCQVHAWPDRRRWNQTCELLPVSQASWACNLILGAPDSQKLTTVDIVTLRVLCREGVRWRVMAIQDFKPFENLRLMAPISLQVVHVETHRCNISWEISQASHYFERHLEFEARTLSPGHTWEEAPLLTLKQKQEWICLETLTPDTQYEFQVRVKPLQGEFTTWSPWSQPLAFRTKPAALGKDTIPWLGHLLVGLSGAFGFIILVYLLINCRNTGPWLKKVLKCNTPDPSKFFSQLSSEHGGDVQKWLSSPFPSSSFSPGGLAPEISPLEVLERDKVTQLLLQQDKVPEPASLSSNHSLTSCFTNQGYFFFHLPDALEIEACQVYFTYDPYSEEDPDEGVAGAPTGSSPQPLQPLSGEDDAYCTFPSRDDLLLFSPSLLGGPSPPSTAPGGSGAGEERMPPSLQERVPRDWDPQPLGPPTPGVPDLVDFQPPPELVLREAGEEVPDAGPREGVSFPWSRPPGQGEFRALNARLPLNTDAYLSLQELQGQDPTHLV
# T1 sequence (looked up) 3: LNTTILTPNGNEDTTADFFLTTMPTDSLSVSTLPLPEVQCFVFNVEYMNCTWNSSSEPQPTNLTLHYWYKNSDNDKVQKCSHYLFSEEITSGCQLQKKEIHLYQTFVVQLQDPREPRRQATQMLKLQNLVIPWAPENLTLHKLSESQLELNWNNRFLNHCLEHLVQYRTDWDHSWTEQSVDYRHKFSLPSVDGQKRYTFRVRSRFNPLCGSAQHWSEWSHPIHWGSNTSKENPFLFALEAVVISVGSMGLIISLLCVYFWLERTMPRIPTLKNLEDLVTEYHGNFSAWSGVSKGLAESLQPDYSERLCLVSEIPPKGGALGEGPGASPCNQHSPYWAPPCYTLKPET
# T2: IL-2Rβ/γc complex (intermediate affinity receptor) on primary human CD8+ T cells (human, UniProt P14784 27-551; P31785 23-369)
# T2 sequence (looked up) 1: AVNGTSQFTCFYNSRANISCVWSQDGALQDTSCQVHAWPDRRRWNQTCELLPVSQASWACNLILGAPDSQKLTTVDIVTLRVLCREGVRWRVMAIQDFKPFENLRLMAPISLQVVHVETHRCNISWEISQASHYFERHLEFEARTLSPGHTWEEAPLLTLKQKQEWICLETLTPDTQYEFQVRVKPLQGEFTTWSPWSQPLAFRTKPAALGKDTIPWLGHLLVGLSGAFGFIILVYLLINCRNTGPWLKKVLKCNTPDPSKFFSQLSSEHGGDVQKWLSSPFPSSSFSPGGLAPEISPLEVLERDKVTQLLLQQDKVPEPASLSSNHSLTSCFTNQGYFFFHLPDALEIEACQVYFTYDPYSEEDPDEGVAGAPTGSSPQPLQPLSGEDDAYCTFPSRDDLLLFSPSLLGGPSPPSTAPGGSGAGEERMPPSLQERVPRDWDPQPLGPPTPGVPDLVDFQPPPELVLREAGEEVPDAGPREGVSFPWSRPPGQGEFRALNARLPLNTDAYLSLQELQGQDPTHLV
# T2 sequence (looked up) 2: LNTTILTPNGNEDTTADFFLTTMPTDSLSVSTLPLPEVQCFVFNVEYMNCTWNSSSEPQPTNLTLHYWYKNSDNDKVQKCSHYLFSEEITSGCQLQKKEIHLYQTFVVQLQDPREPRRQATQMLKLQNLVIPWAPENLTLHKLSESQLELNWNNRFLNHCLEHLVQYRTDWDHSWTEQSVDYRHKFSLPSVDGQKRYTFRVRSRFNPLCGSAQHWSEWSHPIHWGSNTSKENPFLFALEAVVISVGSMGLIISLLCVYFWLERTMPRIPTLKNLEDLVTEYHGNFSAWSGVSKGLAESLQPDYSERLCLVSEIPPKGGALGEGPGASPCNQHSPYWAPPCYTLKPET
# B1: W3XX115-T2U0.E44-48.uIgG4V322 (Fc fusion)
# chain: APTSSSTKKTQLQLEHLLLDLQMILNGINNYKNPKLTRMLTFKFYMPKKATELKHLQCLEEELKPLEEVLNLAQSKNFHLRPRDLISNINVIVLELKGSETTFMCEYADETATIVEFLNRWYTFCQSILESKYGPPCPPCPAPEAAGGPSVFLFPPKPKDTLMISRTPEVTCVVVDVSQEDPEVQFNWYVDGVEVHNAKTKPREEQFNSTYRVVSVLTVLHQDWLNGKEYKCKVSNKGLPSSIEKTISKAKGQPREPQVYTLPPCQEEMTKNQVSLWCLVKGFYPSDIAVEWESNGQPENNYKTTPPVLDSDGSFFLYSRLTVDKSRWQEGNVFSCSVMHEALHNHYTQKSLSLSLG
# heavy: EIQLQQSGPELVKPGASVKVSCKASGYSFTDYNMYWVKQSHGESLEWIGYIDPYNGGTRYNQKFKGKATLTVDKSSSTAFMHLNSLTSEDSAVYYCARNGHWDGAWFAYWGQGTLVTVSAASTKGPSVFPLAPCSRSTSESTAALGCLVKDYFPEPVTVSWNSGALTSGVHTFPAVLQSSGLYSLSSVVTVPSSSLGTKTYTCNVDHKPSNTKVDKRVESKYGPPCPPCPAPEAAGGPSVFLFPPKPKDTLMISRTPEVTCVVVDVSQEDPEVQFNWYVDGVEVHNAKTKPREEQFNSTYRVVSVLTVLHQDWLNGKEYKCKVSNKGLPSSIEKTISKAKGQPREPQVCTLPPSQEEMTKNQVSLSCAVKGFYPSDIAVEWESNGQPENNYKTTPPVLDSDGSFFLVSRLTVDKSRWQEGNVFSCSVMHEALHNHYTQKSLSLSLG
# light: DIQMNQSPSSLSASLGDTITITCHASQNINVWLSWYQQKPGNIPKLLIYKASNLHTGVPSRFSGSRSGTGFTLTISSLQPEDIATYYCHQGQSYPFTFGSGTKLEIKRTVAAPSVFIFPPSDEQLKSGTASVVCLLNNFYPREAKVQWKVDNALQSGNSQESVTEQDSKDSTYSLSSTLTLSKADYEKHKVYACEVTHQGLSSPVTKSFNRGEC
# B2: W3XX115-T2U0.E44-49.uIgG4V322 (Fc fusion)
# chain: APTSSSTKKTQLQLEHLLLDLQMILNGINNYDNPKLTRMLTFKFYMPKKATELKHLQCLEEELKPLEEVLNLAQSKNFHLRPRDLISNINVIVLELKGSETTFMCEYADETATIVEFLNRWITFCQSILESKYGPPCPPCPAPEAAGGPSVFLFPPKPKDTLMISRTPEVTCVVVDVSQEDPEVQFNWYVDGVEVHNAKTKPREEQFNSTYRVVSVLTVLHQDWLNGKEYKCKVSNKGLPSSIEKTISKAKGQPREPQVYTLPPCQEEMTKNQVSLWCLVKGFYPSDIAVEWESNGQPENNYKTTPPVLDSDGSFFLYSRLTVDKSRWQEGNVFSCSVMHEALHNHYTQKSLSLSLG
# heavy: EIQLQQSGPELVKPGASVKVSCKASGYSFTDYNMYWVKQSHGESLEWIGYIDPYNGGTRYNQKFKGKATLTVDKSSSTAFMHLNSLTSEDSAVYYCARNGHWDGAWFAYWGQGTLVTVSAASTKGPSVFPLAPCSRSTSESTAALGCLVKDYFPEPVTVSWNSGALTSGVHTFPAVLQSSGLYSLSSVVTVPSSSLGTKTYTCNVDHKPSNTKVDKRVESKYGPPCPPCPAPEAAGGPSVFLFPPKPKDTLMISRTPEVTCVVVDVSQEDPEVQFNWYVDGVEVHNAKTKPREEQFNSTYRVVSVLTVLHQDWLNGKEYKCKVSNKGLPSSIEKTISKAKGQPREPQVCTLPPSQEEMTKNQVSLSCAVKGFYPSDIAVEWESNGQPENNYKTTPPVLDSDGSFFLVSRLTVDKSRWQEGNVFSCSVMHEALHNHYTQKSLSLSLG
# light: DIQMNQSPSSLSASLGDTITITCHASQNINVWLSWYQQKPGNIPKLLIYKASNLHTGVPSRFSGSRSGTGFTLTISSLQPEDIATYYCHQGQSYPFTFGSGTKLEIKRTVAAPSVFIFPPSDEQLKSGTASVVCLLNNFYPREAKVQWKVDNALQSGNSQESVTEQDSKDSTYSLSSTLTLSKADYEKHKVYACEVTHQGLSSPVTKSFNRGEC
# B3: W3XX115-T2U3.E44-20.uIgG4V322 (Fc fusion)
# chain: APTSSSTKKTQLQLEHLLLDLQMILNGINNYKNPKLTWMLTFKFYMPKKATELKHLQCLEEELKPLEEVLNLAQSKNFHLRPRDLISNINVIVLELKGSETTFMCEYADETATIVEFLNRWITFCQSIIESKYGPPCPPCPAPEAAGGPSVFLFPPKPKDTLMISRTPEVTCVVVDVSQEDPEVQFNWYVDGVEVHNAKTKPREEQFNSTYRVVSVLTVLHQDWLNGKEYKCKVSNKGLPSSIEKTISKAKGQPREPQVYTLPPCQEEMTKNQVSLWCLVKGFYPSDIAVEWESNGQPENNYKTTPPVLDSDGSFFLYSRLTVDKSRWQEGNVFSCSVMHEALHNHYTQKSLSLSLGK
# heavy: QVQLVQSGAEVKKPGSSVKVSCKASGFTFTTYYISWVRQAPGQGLEYLGYINMGSGGTNYNEKFKGRVTITADKSTSTAYMELSSLRSEDTAVYYCAIIGYFDYWGQGTMVTVSSASTKGPSVFPLAPCSRSTSESTAALGCLVKDYFPEPVTVSWNSGALTSGVHTFPAVLQSSGLYSLSSVVTVPSSSLGTKTYTCNVDHKPSNTKVDKRVESKYGPPCPPCPAPEAAGGPSVFLFPPKPKDTLMISRTPEVTCVVVDVSQEDPEVQFNWYVDGVEVHNAKTKPREEQFNSTYRVVSVLTVLHQDWLNGKEYKCKVSNKGLPSSIEKTISKAKGQPREPQVCTLPPSQEEMTKNQVSLSCAVKGFYPSDIAVEWESNGQPENNYKTTPPVLDSDGSFFLVSRLTVDKSRWQEGNVFSCSVMHEALHNHYTQKSLSLSLGK
# light: DVVMTQSPLSLPVTLGQPASISCRSSQSLLDSDGGTYLYWFQQRPGQSPRRLIYLVSTLGSGVPDRFSGSGSGTDFTLKISRVEAEDVGVYYCMQLTHWPYTFGQGTKLEIKRTVAAPSVFIFPPSDEQLKSGTASVVCLLNNFYPREAKVQWKVDNALQSGNSQESVTEQDSKDSTYSLSSTLTLSKADYEKHKVYACEVTHQGLSSPVTKSFNRGEC
# B4: W3XX115-T2U3.E44-33.uIgG4V322 (Fc fusion)
# chain: APTSSSTKKTQLQLEHLLLDLQMILNGINNYKNPKLTWMLTFKFYMPKKATELKHLQCLEEELKPLEEVLNLAQSKNFHLRPRDLISNINVIVLELKGSETTFMCEYADETATIVEFLNRWITFCQSILESKYGPPCPPCPAPEAAGGPSVFLFPPKPKDTLMISRTPEVTCVVVDVSQEDPEVQFNWYVDGVEVHNAKTKPREEQFNSTYRVVSVLTVLHQDWLNGKEYKCKVSNKGLPSSIEKTISKAKGQPREPQVYTLPPCQEEMTKNQVSLWCLVKGFYPSDIAVEWESNGQPENNYKTTPPVLDSDGSFFLYSRLTVDKSRWQEGNVFSCSVMHEALHNHYTQKSLSLSLGK
# heavy: QVQLVQSGAEVKKPGSSVKVSCKASGFTFTTYYISWVRQAPGQGLEYLGYINMGSGGTNYNEKFKGRVTITADKSTSTAYMELSSLRSEDTAVYYCAIIGYFDYWGQGTMVTVSSASTKGPSVFPLAPCSRSTSESTAALGCLVKDYFPEPVTVSWNSGALTSGVHTFPAVLQSSGLYSLSSVVTVPSSSLGTKTYTCNVDHKPSNTKVDKRVESKYGPPCPPCPAPEAAGGPSVFLFPPKPKDTLMISRTPEVTCVVVDVSQEDPEVQFNWYVDGVEVHNAKTKPREEQFNSTYRVVSVLTVLHQDWLNGKEYKCKVSNKGLPSSIEKTISKAKGQPREPQVCTLPPSQEEMTKNQVSLSCAVKGFYPSDIAVEWESNGQPENNYKTTPPVLDSDGSFFLVSRLTVDKSRWQEGNVFSCSVMHEALHNHYTQKSLSLSLGK
# light: DVVMTQSPLSLPVTLGQPASISCRSSQSLLDSDGGTYLYWFQQRPGQSPRRLIYLVSTLGSGVPDRFSGSGSGTDFTLKISRVEAEDVGVYYCMQLTHWPYTFGQGTKLEIKRTVAAPSVFIFPPSDEQLKSGTASVVCLLNNFYPREAKVQWKVDNALQSGNSQESVTEQDSKDSTYSLSSTLTLSKADYEKHKVYACEVTHQGLSSPVTKSFNRGEC
# Columns and labels:
# Assay in all cases: cell-based or functional assay
# [1] = molecular target: T1, IL-2Rα/β/γc complex (high affinity …)
# [2] = molecular target: T2, IL-2Rβ/γc complex (intermediate …)
# [3] = molecular target: T1, IL-2Rα/β/γc complex (high affinity …); remark: listed apart in the source
# [4] = molecular target: PD-1 (on CHO-PD1 engineered cell line; on activated CD8+ T cells) (UniProt Q15116 25-288, limits assumed)
# [5] = molecular target: T2, IL-2Rβ/γc complex (intermediate …); remark: listed apart in the source
Binder,"Potency reduction, pSTAT5, human activated CD8+ T [1] [fold]","pSTAT5 EC50, human activated CD8+ T [1] [nM]","Potency reduction, pSTAT5, human primary CD8+ T [2] [fold]","pSTAT5 EC50, human primary CD8+ T [2] [nM]","Potency reduction, pSTAT5, human activated CD8+ T (CD25 positive and PD-1 positive) [3] [fold]","pSTAT5 EC50, human activated CD8+ T (CD25 positive and PD-1 positive) [3] [nM]","PD-1+/PD-1- ratio (pSTAT5 potency, activated versus primary CD8+ T) [4] [fold]","Potency reduction, pSTAT5, human primary CD8+ T [5] [fold]","pSTAT5 EC50, human primary CD8+ T [5] [nM]"
B1,14.7,0.25,2.7,300,,,,,
B2,22.2,0.38,3.8,425,,,,,
B3,,,,,44.3,1.21,669,56.8,809
B4,,,,,48.6,1.32,283,26.2,373
